# Experimental data published in patent publication US11491212.
# Values joined by “and” are separate entries in the source; they are usually repeats but may differ in a detail not shown here. Identical values can stand only once.
# B1: FIXa-R318Y/R403E/E410N (protein)
# chain 1: not shown
# chain 2: not shown
# B2: FIXa-D203N/F205T/R338E (protein)
# chain 1: not shown
# chain 2: not shown
# B3: FIXa-D104N/K106S/R318Y/R338E/E410N (protein)
# chain 1: not shown
# chain 2: not shown
# B4: FIXa-D203N/F205T/R338E/R403E (protein)
# chain 1: not shown
# chain 2: not shown
# B5: FIXa-D203N/F205T/R338A (protein)
# chain 1: not shown
# chain 2: not shown
# B6: FIXa-D203N/F205T/R318Y (protein)
# chain 1: not shown
# chain 2: not shown
# B7: FIXa-K228N/R318Y/E410N (protein)
# chain 1: not shown
# chain 2: not shown
# B8: FIXa-Y155F/R318Y/R338E/E410N (protein)
# chain 1: not shown
# chain 2: not shown
# B9: FIXa-D203N/F205T/E410N (protein)
# chain 1: not shown
# chain 2: not shown
# Molecular target: Factor X (FX), P00742
# Sequence (P00742 whole entry, looked up): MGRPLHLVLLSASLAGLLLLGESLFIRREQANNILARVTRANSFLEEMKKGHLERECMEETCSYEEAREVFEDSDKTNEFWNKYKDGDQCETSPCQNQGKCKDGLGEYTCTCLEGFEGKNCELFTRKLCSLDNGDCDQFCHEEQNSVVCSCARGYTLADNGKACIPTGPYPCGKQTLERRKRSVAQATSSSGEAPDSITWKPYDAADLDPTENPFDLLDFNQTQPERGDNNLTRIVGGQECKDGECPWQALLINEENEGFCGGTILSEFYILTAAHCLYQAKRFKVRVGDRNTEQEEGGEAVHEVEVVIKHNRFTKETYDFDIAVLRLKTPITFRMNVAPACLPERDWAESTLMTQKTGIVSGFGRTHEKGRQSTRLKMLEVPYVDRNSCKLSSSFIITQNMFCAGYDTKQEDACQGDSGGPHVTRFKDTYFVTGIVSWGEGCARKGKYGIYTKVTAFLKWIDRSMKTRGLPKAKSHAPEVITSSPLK
Protein,% of WT kcat/KM,KM [µM],"KM for FX activation by FIXa in the Xase complex (FVIIIa/PC-PS/Ca2+), fluorogenic Spectrafluor FXa assay [µM]",kcat [s⁻¹],kcat/KM [M⁻¹ s⁻¹]
B1,59% and 54%,0.0942,0.0883,2.3,2.7e+07
B2,–,0.0241,0.0241,2.5,–
B3,581% and 564%,0.0189,0.0189,4.8,–
B4,–,0.0511,0.0511,0.9,–
B5,–,0.0385,0.0385,2.3,–
B6,–,0.0475,0.0475,0.9,–
B7,272% and 264%,0.042,0.042,5,–
B8,835% and 810%,0.016,0.016,5.6,–
B9,–,0.0455,0.0455,1.7,–
